# Data as given in patent US20130252884A1 (Novo Nordisk, published 2013).
# Positions count from the first letter of the chain named. Names may count otherwise.
# B1: Met-FGF21 (mature human FGF21 with an added N-terminal methionine) (ligand)
# chain: MHPIPDSSPLLQFGGQVRQRYLYTDDAQQTEAHLEIREDGTVGGAADQSPESLLQLKALKPGVIQILGVKTSRFLCQRPDGALYGSLHFDPEACSFRELLLEDGYNVYQSEAHGLPLHLPGNKSPHRDPAPRGPARFLPLPGLPPALPEPPGILAPQPPDVGSSDPLSMVGPSQGRSPSYAS
# B2: [-1A, S71C, N121Q, L166F, M168L, Q173A, G174V, Y179F] FGF21 (ligand)
# chain: B1 chain with M1A, S72C, N122Q, L167F, M169L, Q174A, G175V, Y180F
# B3: Derivative 102: Analog 11 with modifying moiety III on the sulphur of Cys 71 (ligand)
# chain: B1 chain with M1A, S72C, N122Q, L167F, M169L, Q174A, G175V, Y180F
# modifications: Cys 71: {2-[2-(2-{2-[2-(2-{2-[(S)-4-Carboxy-4-(17-carboxyheptadecanoylamino)butyrylamino]ethoxy}ethoxy)acetylamino]ethoxy}ethoxy)acetylamino]ethylcarbamoyl}methyl (modifying moiety III) on the sulphur atom
# B4: [-1A, S71C, N121Q, L166F, S167G, M168L, G174V, Y179F, A180E] FGF-21 (ligand)
# chain: B1 chain with M1A, S72C, N122Q, L167F, S168G, M169L, G175V, Y180F, A181E
# B5: Derivative 18: Analog 2 with modifying moiety III on the sulphur of Cys 71 (ligand)
# chain: B1 chain with M1A, S72C, L167F, S168G, M169L, G175V, Y180F, A181E
# modifications: Cys 71: {2-[2-(2-{2-[2-(2-{2-[(S)-4-Carboxy-4-(17-carboxyheptadecanoylamino)butyrylamino]ethoxy}ethoxy)acetylamino]ethoxy}ethoxy)acetylamino]ethylcarbamoyl}methyl (modifying moiety III) on the sulphur atom
# B6: [-1A, S71C, L166F, S167G, M168L, G174V, Y179F, A180E] FGF-21 (ligand)
# chain: B1 chain with M1A, S72C, L167F, S168G, M169L, G175V, Y180F, A181E
# B7: [-1A, S71C, L166F, S167G, M168L, P171L, S172E, Q173A, G174V, Y179F, A180E] FGF-21 (ligand)
# chain: AHPIPDSSPLLQFGGQVRQRYLYTDDAQQTEAHLEIREDGTVGGAADQSPESLLQLKALKPGVIQILGVKTCRFLCQRPDGALYGSLHFDPEACSFRELLLEDGYNVYQSEAHGLPLHLPGNKSPHRDPAPRGPARFLPLPGLPPALPEPPGILAPQPPDVGSSDPFGLVGLEAVRSPSFES
# B8: Derivative 24: Analog 8 with modifying moiety III on the sulphur of Cys 71 (ligand)
# chain: B7 chain with N122Q
# modifications: Cys 71: {2-[2-(2-{2-[2-(2-{2-[(S)-4-Carboxy-4-(17-carboxyheptadecanoylamino)butyrylamino]ethoxy}ethoxy)acetylamino]ethoxy}ethoxy)acetylamino]ethylcarbamoyl}methyl (modifying moiety III) on the sulphur atom
# B9: [-1A, S71C, N121Q, L166F, S167G, M168L, P171L, S172E, Q173A, G174V, Y179F, A180E] FGF-21 (ligand)
# chain: B7 chain with N122Q
# B10: [-1A, S71C, N121Q, L166F, S167G, M168L, G174V, Y179F, A180E, des181] FGF-21 (ligand)
# chain: AHPIPDSSPLLQFGGQVRQRYLYTDDAQQTEAHLEIREDGTVGGAADQSPESLLQLKALKPGVIQILGVKTCRFLCQRPDGALYGSLHFDPEACSFRELLLEDGYNVYQSEAHGLPLHLPGQKSPHRDPAPRGPARFLPLPGLPPALPEPPGILAPQPPDVGSSDPFGLVGPSQVRSPSFE
# B11: [-1A, S71C, L166F, S167G, M168L, G174V, Y179F, A180E, des181] FGF-21 (ligand)
# chain: B10 chain with Q122N
# B12: [-1A, S71C, N121Q, L166F, S167G, M168L, P171L, S172E, Q173A, G174V, Y179F, A180E, des181] FGF-21 (ligand)
# chain: B10 chain with P172L, S173E, Q174A
# B13: Derivative 21: Analog 5 with modifying moiety III on the sulphur of Cys 71 (ligand)
# chain: B10 chain
# modifications: Cys 71: {2-[2-(2-{2-[2-(2-{2-[(S)-4-Carboxy-4-(17-carboxyheptadecanoylamino)butyrylamino]ethoxy}ethoxy)acetylamino]ethoxy}ethoxy)acetylamino]ethylcarbamoyl}methyl (modifying moiety III) on the sulphur atom
# B14: [-1A, S71C, L166F, S167G, M168L, P171L, S172E, Q173A, G174V, Y179F, A180E, des181] FGF-21 (ligand)
# chain: B10 chain with Q122N, P172L, S173E, Q174A
# B15: Derivative 17: Analog 1 with modifying moiety III on the sulphur of Cys 71 (ligand)
# chain: B10 chain with Q122N
# modifications: Cys 71: {2-[2-(2-{2-[2-(2-{2-[(S)-4-Carboxy-4-(17-carboxyheptadecanoylamino)butyrylamino]ethoxy}ethoxy)acetylamino]ethoxy}ethoxy)acetylamino]ethylcarbamoyl}methyl (modifying moiety III) on the sulphur atom
# B16: Derivative 31: Analog 7 with modifying moiety IV on the sulphur of Cys 71 (ligand)
# chain: B10 chain with P172L, S173E, Q174A
# modifications: Cys 71: {2-[2-(2-{2-[2-(2-{2-[(S)-4-Carboxy-4-(19-carboxynonadecanoylamino)butyrylamino]ethoxy}ethoxy)acetylamino]ethoxy}ethoxy)acetylamino]ethylcarbamoyl}methyl (modifying moiety IV) on the sulphur atom
# B17: Derivative 19: Analog 3 with modifying moiety III on the sulphur of Cys 71 (ligand)
# chain: B10 chain with Q122N, P172L, S173E, Q174A
# modifications: Cys 71: {2-[2-(2-{2-[2-(2-{2-[(S)-4-Carboxy-4-(17-carboxyheptadecanoylamino)butyrylamino]ethoxy}ethoxy)acetylamino]ethoxy}ethoxy)acetylamino]ethylcarbamoyl}methyl (modifying moiety III) on the sulphur atom
# B18: Derivative 23: Analog 7 with modifying moiety III on the sulphur of Cys 71 (ligand)
# chain: B10 chain with P172L, S173E, Q174A
# modifications: Cys 71: {2-[2-(2-{2-[2-(2-{2-[(S)-4-Carboxy-4-(17-carboxyheptadecanoylamino)butyrylamino]ethoxy}ethoxy)acetylamino]ethoxy}ethoxy)acetylamino]ethylcarbamoyl}methyl (modifying moiety III) on the sulphur atom
# B19: [-1A, 121Q, 166F, 167G, 168L, 171L, 172E, 173A, 174V, 179F, 180E, des181] FGF-21 (ligand)
# chain: B10 chain with C72S, P172L, S173E, Q174A
# B20: [-1A, 71C, 121Q, 166F, 167G, 168L, 171L, 172E, 173A, 174V, des179-181] FGF-21 (ligand)
# chain: AHPIPDSSPLLQFGGQVRQRYLYTDDAQQTEAHLEIREDGTVGGAADQSPESLLQLKALKPGVIQILGVKTCRFLCQRPDGALYGSLHFDPEACSFRELLLEDGYNVYQSEAHGLPLHLPGQKSPHRDPAPRGPARFLPLPGLPPALPEPPGILAPQPPDVGSSDPFGLVGLEAVRSPS
# B21: Derivative 101: Analog 10 with modifying moiety III on the sulphur of Cys 71 (ligand)
# chain: B20 chain
# modifications: Cys 71: {2-[2-(2-{2-[2-(2-{2-[(S)-4-Carboxy-4-(17-carboxyheptadecanoylamino)butyrylamino]ethoxy}ethoxy)acetylamino]ethoxy}ethoxy)acetylamino]ethylcarbamoyl}methyl (modifying moiety III) on the sulphur atom
# Biological target: human beta-Klotho (human, UniProt Q86Z14 1-1044)
# Experiment: cell-based or functional assay
row,pERK-HEK293-Beta-klotho without HSA [EC50 (nM)] Median Value,Binder
1,1.6 nM,B1
2,0.98 nM,B2
3,1.4 nM,B3
4,0.71 nM,B4
5,0.47 nM,B5
6,0.64 nM,B6
7,0.47 nM,B7
8,1.01 nM,B8
9,0.76 nM,B9
10,0.78 nM,B10
11,0.71 nM,B11
12,0.63 nM,B12
13,1.07 nM,B13
14,0.77 nM,B14
15,0.98 nM,B15
16,1.46 nM,B16
17,0.48 nM,B17
18,0.64 nM,B18
19,0.7 nM,B19
20,12.5 nM,B20
21,23.8 nM,B21
